Kd, koff and kon data for one substance are collected here from US20100298542A1.

For test [1], the target named is recombinant soluble human IL-6 receptor (SR344) (human) (UniProt P08887). Kind of test: SPR (Biacore T100), antibody captured on anti-IgG (γ-chain specific) F(ab')2, SR344 as analyte, pH 7.4, 37° C. (SPR reads the build-up and loss of mass on a sensor chip optically.)
Test [2] addresses soluble human FcRn (complex of FcRn extracellular domain and β2-microglobulin) (human) (UniProt P55899). Briefly: SPR (Biacore 3000), method of Example 6: captured antibody, human FcRn as analyte, pH 6.0, steady state affinity.
Test [3] shares this target. Briefly: SPR (Biacore 3000), antibody captured on Protein L or anti-human kappa antibody, human FcRn as analyte, pH 6.0, steady state affinity.
Test [4] shares this target. The description is as above. This is another data set of the same source.

recombinant soluble human IL-6 receptor (SR344) (human), sequence (P08887 20-344): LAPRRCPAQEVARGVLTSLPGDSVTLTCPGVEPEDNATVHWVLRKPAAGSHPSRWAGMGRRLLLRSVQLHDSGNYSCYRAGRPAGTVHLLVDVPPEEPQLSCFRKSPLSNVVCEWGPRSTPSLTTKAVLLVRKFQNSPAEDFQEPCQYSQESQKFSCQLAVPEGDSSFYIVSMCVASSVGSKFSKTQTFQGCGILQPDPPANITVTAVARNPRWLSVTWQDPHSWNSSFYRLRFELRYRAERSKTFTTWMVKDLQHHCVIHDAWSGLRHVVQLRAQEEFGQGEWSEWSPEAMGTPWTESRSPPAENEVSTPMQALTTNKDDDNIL
soluble human FcRn (complex of FcRn extracellular domain and β2-microglobulin) (human), sequence (P55899 24-290 limits assumed, chain 1 of 2): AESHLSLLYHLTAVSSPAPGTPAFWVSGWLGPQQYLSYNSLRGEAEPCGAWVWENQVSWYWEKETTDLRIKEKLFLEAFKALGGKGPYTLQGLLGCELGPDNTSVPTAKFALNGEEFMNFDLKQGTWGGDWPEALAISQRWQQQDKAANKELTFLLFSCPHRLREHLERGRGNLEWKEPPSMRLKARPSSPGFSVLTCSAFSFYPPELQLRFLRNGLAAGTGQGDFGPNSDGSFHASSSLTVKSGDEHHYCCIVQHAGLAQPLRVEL
soluble human FcRn (complex of FcRn extracellular domain and β2-microglobulin) (human), sequence (b2m, as listed by the source limits assumed, chain 2 of 2): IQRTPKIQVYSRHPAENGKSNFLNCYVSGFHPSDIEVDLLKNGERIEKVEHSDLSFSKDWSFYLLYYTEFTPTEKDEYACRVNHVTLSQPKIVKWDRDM

One may read the Kd as the constant that tells how readily two partners part at equilibrium. The term koff denotes a measure of how fast the partners let go of each other. What is called kon is the rate constant with which the complex forms. Turning to “WT-IgG1 (humanized PM-1 antibody, TOCILIZUMAB; humanized anti-human IL-6 receptor IgG1 antibody)”, the Kd in test [1] was 0.0027 µM; in test [2], 1.42 µM; in test [3], 2.07 µM; in test [4], 1.62 µM. Also, the koff in test [1] stood at 0.0011 s⁻¹. For the same substance, the on-rate (kon) in test [1] turned out to be 400000 M⁻¹ s⁻¹.
